Source: patent US20260049105A1, “SELECTIVE MC4R LIGAND FOR TREATING OBESITY AND COGNITIVE LOSS” (ARIZONA BOARD OF REGENTS ON BEHALF OF THE UNIVERSITY OF …, priority 2022, published 2026)
Like-named read-outs stand apart in the source and are kept apart here.

Experiments:
[1] = target: human melanocortin 3 receptor (human) (UniProt P41968); experiment: competition with 125I-NDP-α-MSH, cells expressing hMC3R
[2] = target: human melanocortin 5 receptor (human) (UniProt P33032); experiment: cell-based or functional assay
Sequence of human melanocortin 5 receptor (human) (P33032 whole entry): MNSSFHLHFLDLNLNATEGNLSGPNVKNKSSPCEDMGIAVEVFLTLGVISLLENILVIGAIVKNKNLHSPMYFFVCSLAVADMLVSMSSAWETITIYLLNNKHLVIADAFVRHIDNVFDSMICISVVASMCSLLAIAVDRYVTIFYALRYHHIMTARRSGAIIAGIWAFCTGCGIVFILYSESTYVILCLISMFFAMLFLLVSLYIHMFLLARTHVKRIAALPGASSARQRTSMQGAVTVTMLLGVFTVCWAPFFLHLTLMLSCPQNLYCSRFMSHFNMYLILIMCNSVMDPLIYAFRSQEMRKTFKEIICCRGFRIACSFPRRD

[3] = target: human melanocortin 4 receptor (human) (UniProt P32245); experiment: cell-based or functional assay
Sequence of human melanocortin 4 receptor (human) (P32245 whole entry): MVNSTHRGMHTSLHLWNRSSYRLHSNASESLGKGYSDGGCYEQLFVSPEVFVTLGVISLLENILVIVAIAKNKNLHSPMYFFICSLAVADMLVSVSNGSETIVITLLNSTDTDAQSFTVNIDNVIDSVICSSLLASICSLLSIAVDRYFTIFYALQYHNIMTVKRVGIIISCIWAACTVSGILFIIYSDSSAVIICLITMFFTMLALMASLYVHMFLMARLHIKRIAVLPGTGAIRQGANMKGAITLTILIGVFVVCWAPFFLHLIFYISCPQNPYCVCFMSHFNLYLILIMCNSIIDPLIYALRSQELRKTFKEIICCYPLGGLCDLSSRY

[4] = target: human melanocortin 3 receptor (human) (UniProt P41968); experiment: cell-based or functional assay
[5] = target: human melanocortin 1 receptor (human) (UniProt Q01726); experiment: cell-based or functional assay
Sequence of human melanocortin 1 receptor (human) (Q01726 whole entry): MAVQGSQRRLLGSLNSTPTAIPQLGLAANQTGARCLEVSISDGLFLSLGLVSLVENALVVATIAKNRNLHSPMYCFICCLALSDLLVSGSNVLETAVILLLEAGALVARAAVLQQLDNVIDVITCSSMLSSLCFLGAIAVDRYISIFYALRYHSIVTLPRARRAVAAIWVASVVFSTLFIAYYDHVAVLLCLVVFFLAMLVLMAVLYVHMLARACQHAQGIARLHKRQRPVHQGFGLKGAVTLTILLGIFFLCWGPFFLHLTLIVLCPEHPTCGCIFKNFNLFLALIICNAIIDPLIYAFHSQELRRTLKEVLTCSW

[6] = target: human melanocortin 5 receptor (human) (UniProt P33032); experiment: competition with 125I-NDP-α-MSH, cells expressing hMC5R
[7] = target: human melanocortin 1 receptor (human) (UniProt Q01726); experiment: competition with 125I-NDP-α-MSH, cells expressing hMC1R
[8] = target: human melanocortin 4 receptor (human) (UniProt P32245); experiment: competition with 125I-NDP-α-MSH on whole HEK293 cells expressing hMC4R
[9] = target: human melanocortin 4 receptor (human) (UniProt P32245); experiment: plasmon waveguide resonance, hMC4R membranes
[10] = target: human melanocortin 4 receptor (human) (UniProt P32245); experiment: competition with 125I-NDP-α-MSH, ratio of IC50 values
[11] = target: human melanocortin 4 receptor (human) (UniProt P32245); experiment: competition with 125I-NDP-α-MSH on whole HEK293 cells expressing hMC4R; remark: listed apart in the source

Sequence of human melanocortin 3 receptor (human) (P41968 whole entry): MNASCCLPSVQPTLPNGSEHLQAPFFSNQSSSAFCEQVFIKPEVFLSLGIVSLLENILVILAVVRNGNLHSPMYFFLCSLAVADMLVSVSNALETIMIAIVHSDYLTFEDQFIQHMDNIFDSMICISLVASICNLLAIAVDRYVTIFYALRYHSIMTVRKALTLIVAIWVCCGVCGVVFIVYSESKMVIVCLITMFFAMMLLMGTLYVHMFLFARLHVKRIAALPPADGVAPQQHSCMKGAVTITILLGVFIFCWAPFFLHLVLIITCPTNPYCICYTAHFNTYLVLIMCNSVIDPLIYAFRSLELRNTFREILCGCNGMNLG

| Substance | BE % (percent NDP-α-MSH displacement at 10 µM) [1] [%] | IC50 [1] [nM] | Act % [2] [%] | EC50 (nM), cAMP accumulation [2] [nM] | Act % [3] [%] | EC50 (nM), cAMP accumulation [3] [nM] | Act % [4] [%] | EC50 (nM), cAMP accumulation [4] [nM] | Act % [5] [%] | EC50 (nM), cAMP accumulation [5] [nM] | BE % (percent NDP-α-MSH displacement at 10 µM) [6] [%] | BE % (percent NDP-α-MSH displacement at 10 µM) [7] [%] | IC50 [7] [nM] | BE% (percent [125I]NDP-α-MSH displacement at 10 µM) [8] [%] | IC50 [8] [nM] | IC50 [6] [nM] | also measured |
| --- | --- | --- | --- | --- | --- | --- | --- | --- | --- | --- | --- | --- | --- | --- | --- | --- | --- |
| Ac-Arg-cyclo[Asp-Pip-D-Phe(4-Cl)-Arg-βTrp-Lys]-NH2 (peptide) | 70 | 37 | 21 | > 1000 | 57 | 240 | 24 | > 1000 | 67 | 99 | 0 | 100 | 0.9 | 100 | 10 |  |  |
| Ac-Arg-cyclo[Asp-Pip-D-Phe(4-Cl)-βArg-Trp-Lys]-NH2 (peptide) | 100 | 108 | 38 | > 1000 | 66 | 110 | 46 | 360 | 89 | 130 | 0 | 100 | 5 | 100 | 8 |  |  |
| Ac-Arg-cyclo[Asp-Pip-D-Phe(4-Cl)-βArg-βTrp-Lys]-NH2 (peptide) | 10 |  | 76 | 295 | 87 | 4 | 63 | > 1000 | 90 | 240 | 75 | 100 | 27 | 100 | 0.4 | 70 | EC50 (cAMP) [3]: 4.2 nM; PWR resonance position, p-polarization (hMC4R sole 26.44) [9]: 26.9 degrees; fold higher binding affinity to hMC4R than hMC1R [10]: 68 fold; fold higher binding affinity to hMC4R than hMC3R [10]: > 1000 fold; fold higher binding affinity to hMC4R than hMC5R [10]: > 1000 fold |
| Ac-Arg-cyclo[Asp-Pip-D-Phe(4-F)-Arg-βTrp-Lys]-NH2 (peptide) | 100 | 117 | 72 | 530 | 46 | 630 | 76 | 450 | 90 | 64 | 100 | 100 | 0.2 | 9 |  | 47 |  |
| Ac-Arg-cyclo[Asp-Pip-D-Phe(4-F)-βArg-βTrp-Lys]-NH2 (peptide) | 39 | 396 | 51 | > 1000 | 120 | > 1000 | 49 | > 1000 | 61 | > 1000 | 90 | 0 |  | 59 | 248 | 59 |  |
| Ac-Arg-cyclo[Asp-Pip-D-Phe-Arg-βTrp-Lys]-NH2 (peptide) | 60 | 149 | 95 | 580 | 63 | > 1000 | 88 | 680 | 88 | 120 | 66 | 100 | 3 | 0 |  | 350 |  |
| Ac-Arg-cyclo[Asp-Pip-D-Phe-βArg-Trp-Lys]-NH2 (peptide) | 24 | 600 | 90 | > 1000 | 67 | 47 | 89 | > 1000 | 120 | 220 | 0 | 100 | 0.1 | 100 | 0.4 |  |  |
| Ac-Arg-cyclo[Asp-Pip-D-Phe-βArg-βTrp-Lys]-NH2 (peptide) | 100 | 7 | 82 | 290 | 84 | 16 | 87 | 120 | 82 | 190 | 46 | 30 | 270 | 100 | 0.1 | 607 | IC50 [11]: 1 nM |
| Melanotan II, Ac-Nle-c[Asp-His-DPhe-Arg-Trp-Lys]-NH2 (peptide) | 100 | 9 | 100 | 2 | 100 | 10 | 100 | 3 | 100 | 32 | 100 | 100 | 7 | 100 |  | 6 |  |
| RM493 (peptide) |  |  |  |  |  |  |  |  |  |  |  |  |  |  |  |  | PWR left shift against hMC4R sole, p-polarization [9]: 0.25 degrees; PWR resonance position, s-polarization (sole MC4R 33.29) [9]: 33 degrees |
